# Key:
# Assay in all cases: cell-based or functional assay
# [1] = molecular target: HIV-1 Env of pseudovirus 1054_07_TC4_1499 (HIV-1)
# [2] = molecular target: HIV-1 Env of pseudovirus 1394C9G1(Rev-) (HIV-1)
# [3] = molecular target: HIV-1 Env of pseudovirus 246F C1G (HIV-1)
# [4] = molecular target: HIV-1 Env of pseudovirus 62357_14_D3_4589 (HIV-1)
# [5] = molecular target: HIV-1 Env of pseudovirus 6240_08_TA5_4622 (HIV-1)
# [6] = molecular target: HIV-1 Env of pseudovirus 6244_13_B5_4576 (HIV-1)
# [7] = molecular target: HIV-1 Env of pseudovirus 6535.3 (HIV-1)
# [8] = molecular target: HIV-1 Env of pseudovirus AC10.0.29 (HIV-1)
# [9] = molecular target: HIV-1 Env of pseudovirus CAAN5342.A2 (HIV-1)
# [10] = molecular target: HIV-1 Env of pseudovirus CAP210.2.00.E8 (HIV-1)
# [11] = molecular target: HIV-1 Env of pseudovirus CAP45.2.00.G3 (HIV-1)
# [12] = molecular target: HIV-1 Env of pseudovirus CNE30 (HIV-1)
# [13] = molecular target: HIV-1 Env of pseudovirus CNE52 (HIV-1)
# [14] = molecular target: HIV-1 Env of pseudovirus CNE8 (HIV-1)
# [15] = molecular target: HIV-1 Env of pseudovirus Ce0393_C3 (HIV-1)
# [16] = molecular target: HIV-1 Env of pseudovirus Ce0682_E4 (HIV-1)
# [17] = molecular target: HIV-1 Env of pseudovirus Ce1172_H1 (HIV-1)
# [18] = molecular target: HIV-1 Env of pseudovirus Ce2010_F5 (HIV-1)
# [19] = molecular target: HIV-1 Env of pseudovirus Ce703010054_2A2 (HIV-1)
# [20] = molecular target: HIV-1 Env of pseudovirus Ce704809221_1B3 (HIV-1)
# [21] = molecular target: HIV-1 Env of pseudovirus HIV-001428-2.42 (HIV-1)
# [22] = molecular target: HIV-1 Env of pseudovirus HIV-16055-2.3 (HIV-1)
# [23] = molecular target: HIV-1 Env of pseudovirus HIV-16845-2.22 (HIV-1)
# [24] = molecular target: HIV-1 Env of pseudovirus MS208.A1 (HIV-1)
# [25] = molecular target: HIV-1 Env of pseudovirus PVO.4 (HIV-1)
# [26] = molecular target: HIV-1 Env of pseudovirus Q23.17 (HIV-1)
# [27] = molecular target: HIV-1 Env of pseudovirus Q769.d22 (HIV-1)
# [28] = molecular target: HIV-1 Env of pseudovirus SC05_8C11_2344 (HIV-1)
# [29] = molecular target: HIV-1 Env of pseudovirus T250-4 (HIV-1)
# [30] = molecular target: HIV-1 Env of pseudovirus THRO4156.18 (HIV-1)
# [31] = molecular target: HIV-1 Env of pseudovirus TRJO4551.58 (HIV-1)
# [32] = molecular target: HIV-1 Env of pseudovirus TRO.11 (HIV-1)
# [33] = molecular target: HIV-1 Env of pseudovirus WITO4160.33 (HIV-1)
# [34] = molecular target: HIV-1 Env of pseudovirus ZM109F.PB4 (HIV-1)
# [35] = molecular target: HIV-1 Env of pseudovirus ZM135M.PL10a (HIV-1)
# [36] = molecular target: HIV-1 Env of pseudovirus ZM233M.PB6 (HIV-1)
# [37] = molecular target: HIV-1 Env of pseudovirus ZM247v1(Rev-) (HIV-1)
substance,measurement,setting,value
N49P7 (antibody),IC50,[1],0.494 µg/mL
same,IC80,[1],2.31 µg/mL
same,MPI,[1],100
same,IC50,[2],3.84 µg/mL
same,IC80,[2],21.1 µg/mL
same,MPI,[2],94
same,IC50,[3],0.094 µg/mL
same,IC80,[3],0.255 µg/mL
same,MPI,[3],100
same,IC50,[4],0.025 µg/mL
same,IC80,[4],0.102 µg/mL
same,MPI,[4],100
same,IC50,[5],0.457 µg/mL
same,IC80,[5],1.73 µg/mL
same,MPI,[5],100
same,IC50,[6],0.111 µg/mL
same,IC80,[6],0.386 µg/mL
same,MPI,[6],100
same,IC50,[7],0.186 µg/mL
same,IC80,[7],0.598 µg/mL
same,MPI,[7],100
same,IC50,[8],5.03 µg/mL
same,IC80,[8],36.7 µg/mL
same,MPI,[8],89
same,IC50,[9],0.409 µg/mL
same,IC80,[9],1.21 µg/mL
same,MPI,[9],100
same,IC50,[10],1.82 µg/mL
same,IC80,[10],6.49 µg/mL
same,MPI,[10],100
same,IC50,[11],0.06 µg/mL
same,IC80,[11],0.29 µg/mL
same,MPI,[11],100
same,IC50,[12],0.18 µg/mL
same,IC80,[12],0.609 µg/mL
same,MPI,[12],100
same,IC50,[13],0.008 µg/mL
same,IC80,[13],0.023 µg/mL
same,MPI,[13],100
same,IC50,[14],0.037 µg/mL
same,IC80,[14],0.125 µg/mL
same,MPI,[14],100
same,IC50,[15],0.195 µg/mL
same,IC80,[15],0.802 µg/mL
same,MPI,[15],100
same,IC50,[16],0.041 µg/mL
same,IC80,[16],0.131 µg/mL
same,MPI,[16],100
same,IC50,[17],8.5 µg/mL
same,IC80,[17],37.5 µg/mL
same,MPI,[17],92
same,IC50,[18],0.13 µg/mL
same,IC80,[18],0.547 µg/mL
same,MPI,[18],100
same,IC50,[19],0.132 µg/mL
same,IC80,[19],0.466 µg/mL
same,MPI,[19],100
same,IC50,[20],0.141 µg/mL
same,IC80,[20],0.932 µg/mL
same,MPI,[20],100
same,IC50,[21],0.006 µg/mL
same,IC80,[21],0.02 µg/mL
same,MPI,[21],100
same,IC50,[22],0.057 µg/mL
same,IC80,[22],0.28 µg/mL
same,MPI,[22],100
same,IC50,[23],0.95 µg/mL
same,IC80,[23],3.94 µg/mL
same,MPI,[23],100
same,IC50,[24],0.12 µg/mL
same,IC80,[24],0.479 µg/mL
same,MPI,[24],100
same,IC50,[25],0.107 µg/mL
same,IC80,[25],0.365 µg/mL
same,MPI,[25],100
same,IC50,[26],0.052 µg/mL
same,IC80,[26],0.21 µg/mL
same,MPI,[26],100
same,IC50,[27],0.025 µg/mL
same,IC80,[27],0.111 µg/mL
same,MPI,[27],100
same,IC50,[28],0.164 µg/mL
same,IC80,[28],0.403 µg/mL
same,MPI,[28],100
same,IC50,[29],2.07 µg/mL
same,IC80,[29],21.4 µg/mL
same,MPI,[29],91
same,IC50,[30],2.34 µg/mL
same,IC80,[30],12.4 µg/mL
same,MPI,[30],99
same,IC50,[31],0.104 µg/mL
same,IC80,[31],0.351 µg/mL
same,MPI,[31],100
same,IC50,[32],0.044 µg/mL
same,IC80,[32],0.16 µg/mL
same,MPI,[32],100
same,IC50,[33],0.084 µg/mL
same,IC80,[33],0.248 µg/mL
same,MPI,[33],100
same,IC50,[34],0.034 µg/mL
same,IC80,[34],0.153 µg/mL
same,MPI,[34],100
same,IC50,[35],0.2 µg/mL
same,IC80,[35],0.96 µg/mL
same,MPI,[35],100
same,IC50,[36],0.226 µg/mL
same,IC80,[36],0.774 µg/mL
same,MPI,[36],100
same,IC50,[37],0.062 µg/mL
same,IC80,[37],0.214 µg/mL
same,MPI,[37],100
VRC07 (antibody),IC50,[1],0.239 µg/mL
same,IC80,[1],1.46 µg/mL
same,IC50,[2],0.112 µg/mL
same,IC80,[2],0.368 µg/mL
same,IC50,[3],0.286 µg/mL
same,IC80,[3],1.04 µg/mL
same,IC50,[4],0.075 µg/mL
same,IC80,[4],0.256 µg/mL
same,IC50,[5],0.448 µg/mL
same,IC80,[5],1.54 µg/mL
same,IC50,[6],0.065 µg/mL
same,IC80,[6],0.23 µg/mL
same,IC50,[7],0.169 µg/mL
same,IC80,[7],0.517 µg/mL
same,IC50,[8],0.282 µg/mL
same,IC80,[8],0.986 µg/mL
same,IC50,[9],0.307 µg/mL
same,IC80,[9],1.05 µg/mL
same,IC50,[10],> 50 µg/mL
same,IC80,[10],> 50 µg/mL
same,IC50,[11],0.355 µg/mL
same,IC80,[11],3.09 µg/mL
same,IC50,[12],0.326 µg/mL
same,IC80,[12],1.08 µg/mL
same,IC50,[13],0.042 µg/mL
same,IC80,[13],0.142 µg/mL
same,IC50,[15],0.182 µg/mL
same,IC80,[15],0.634 µg/mL
same,IC50,[16],0.039 µg/mL
same,IC80,[16],0.239 µg/mL
same,IC50,[17],> 50 µg/mL
same,IC80,[17],> 50 µg/mL
same,IC50,[18],0.131 µg/mL
same,IC80,[18],0.48 µg/mL
same,IC50,[19],0.19 µg/mL
same,IC80,[19],0.912 µg/mL
same,IC50,[20],0.273 µg/mL
same,IC80,[20],1.14 µg/mL
same,IC50,[21],0.004 µg/mL
same,IC80,[21],0.016 µg/mL
same,IC50,[22],0.025 µg/mL
same,IC80,[22],0.135 µg/mL
same,IC50,[23],1.21 µg/mL
same,IC80,[23],6.15 µg/mL
same,IC50,[24],0.12 µg/mL
same,IC80,[24],0.425 µg/mL
same,IC50,[25],0.063 µg/mL
same,IC80,[25],0.226 µg/mL
same,IC50,[26],0.081 µg/mL
same,IC80,[26],0.236 µg/mL
same,IC50,[27],0.018 µg/mL
same,IC80,[27],0.087 µg/mL
same,IC50,[28],0.133 µg/mL
same,IC80,[28],0.401 µg/mL
same,IC50,[30],2.4 µg/mL
same,IC80,[30],12.2 µg/mL
same,IC50,[31],0.032 µg/mL
same,IC80,[31],0.125 µg/mL
same,IC50,[32],0.132 µg/mL
same,IC80,[32],0.456 µg/mL
same,IC50,[33],0.042 µg/mL
same,IC80,[33],0.193 µg/mL
same,IC50,[34],0.112 µg/mL
same,IC80,[34],0.389 µg/mL
same,IC50,[35],0.104 µg/mL
same,IC80,[35],0.383 µg/mL
same,IC50,[36],0.152 µg/mL
same,IC80,[36],0.625 µg/mL
same,IC50,[37],0.041 µg/mL
same,IC80,[37],0.189 µg/mL
